Ends that are not written are not given here.
Target: T1, PRMT5-MEP50 complex (full-length, purified) (human | , UniProt O14744 1-637; Q9BQA1 1-342)
T1 construct: Protein arginine methyltransferase 5 (PRMT5), human, of the full-length PRMT5-MEP50 complex; MEP50 (WDR77), of the full-length PRMT5-MEP50 complex; also called native PRMT5-MEP50; PRMT5-MEP50 methyltransferase; copies: 4 + 4
Experiment: fluorescence polarisation; competitive; tracer fluorescently labeled … (S1) 1 nM, PRMT5-MEP50 600 nM, unlabeled peptide titrated in two-fold dilutions; 50 mM HEPES, 250 mM NaCl, 1 mM TCEP, 0.01% Tween 20, pH 8.0, room temperature
Conditions: both partners purified

T1 sequence (O14744 whole entry, chain 1 of 2): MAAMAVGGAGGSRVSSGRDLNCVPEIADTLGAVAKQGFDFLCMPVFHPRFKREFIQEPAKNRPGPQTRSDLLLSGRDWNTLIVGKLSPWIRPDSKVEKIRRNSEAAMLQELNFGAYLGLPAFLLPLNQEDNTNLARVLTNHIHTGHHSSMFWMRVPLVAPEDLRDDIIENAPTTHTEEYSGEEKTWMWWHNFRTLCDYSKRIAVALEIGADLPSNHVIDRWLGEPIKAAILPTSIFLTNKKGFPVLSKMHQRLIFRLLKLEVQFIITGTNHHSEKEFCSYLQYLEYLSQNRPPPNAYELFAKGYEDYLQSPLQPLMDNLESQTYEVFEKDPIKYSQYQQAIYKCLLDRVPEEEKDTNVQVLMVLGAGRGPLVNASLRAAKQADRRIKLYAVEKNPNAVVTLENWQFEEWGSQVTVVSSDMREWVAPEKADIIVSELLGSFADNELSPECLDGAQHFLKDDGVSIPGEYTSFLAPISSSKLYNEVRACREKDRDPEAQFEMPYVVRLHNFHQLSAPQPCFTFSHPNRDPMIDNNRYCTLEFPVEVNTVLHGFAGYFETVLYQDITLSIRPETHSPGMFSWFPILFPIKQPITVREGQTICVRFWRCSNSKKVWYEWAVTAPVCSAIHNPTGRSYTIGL
T1 sequence (Q9BQA1 whole entry, chain 2 of 2): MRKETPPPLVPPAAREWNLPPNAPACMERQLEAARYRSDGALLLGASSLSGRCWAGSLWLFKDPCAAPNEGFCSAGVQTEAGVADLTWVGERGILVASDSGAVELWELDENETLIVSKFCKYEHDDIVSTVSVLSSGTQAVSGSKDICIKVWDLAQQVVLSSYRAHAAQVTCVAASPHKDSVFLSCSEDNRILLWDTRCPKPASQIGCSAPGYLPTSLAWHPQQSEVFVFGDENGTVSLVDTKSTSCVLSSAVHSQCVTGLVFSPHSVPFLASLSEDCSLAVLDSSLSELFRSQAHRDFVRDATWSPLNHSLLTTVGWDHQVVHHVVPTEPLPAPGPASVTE

binding result: binds
B1: fluorescently labeled SRVVPGQFDDADSSD RioK1 sequence (peptide)
peptide: SRVVPGQFDDADSSD
modifications: not fully specified; also: FITC label, position not given here
notes: also called S1; source: synthetic peptide

Source: paper PMC9706563 (Journal of Medicinal Chemistry, 2022)
